From article PMC3392930 (The Journal of Cell Biology, 2012)
Where two headings read alike, the source gives them in different places.

Legend:
[1] = biological target: S-tagged RSP3_(1–160) (Chlamydomonas reinhardtii) (UniProt P12759); assay: pull-down
cross-linking [2] = biological target: the molecule itself; assay: cross-linking
cross-linking [3] = biological target: the molecule itself; assay: cross-linking; remark: listed apart in the source

His-tagged LC8 (natural protein)
stoichiometry N (LC8 per RSP3 (1–160)) [1]: 3

B1: RSP3_(1–170)-Cys (domain or fragment, Chlamydomonas reinhardtii, UniProt P12759 1-170, looked up)
chain: MVQAKAQQQLYTHAAEPKAVQQRRAKYREDETTQTLPTANIMFDRRVVRGNTYAARILPADATQTQTKGPSPASTKKRTTRTLPPRTPEAVDGRRHIDIQTDVYLEELTDTVPEADTSTQTDAFLDRPPTPLFVPQKTGTDAITQIENGDLFDFDFEVEPILEVLVGKVL
stoichiometry N (cross-linking [2]): 2

B2: RSP3_(1–170)-HAHis (domain or fragment, Chlamydomonas reinhardtii, UniProt P12759 1-170, looked up)
chain: MVQAKAQQQLYTHAAEPKAVQQRRAKYREDETTQTLPTANIMFDRRVVRGNTYAARILPADATQTQTKGPSPASTKKRTTRTLPPRTPEAVDGRRHIDIQTDVYLEELTDTVPEADTSTQTDAFLDRPPTPLFVPQKTGTDAITQIENGDLFDFDFEVEPILEVLVGKVL
stoichiometry N (cross-linking [3]): 2
